Assay [1] has as its target T1, TWEAKR (TNFRSF12A, FN14), human, on tumor cell lines (human, UniProt Q9NP84 28-129).
T1 construct: endogenous receptor on human cancer cell lines; also called TWEAK receptor; CD266
The assay is described as follows: FACS, SKOV-3 cells, 10 ug/ml.
Protocol: (§1) To determine the binding characteristics of the anti-TWEAKR antibodies on mouse and human cancer cell lines, binding was tested by flow cytometry to a panel of cell lines. […] Cells were suspended at approximately 10⁵ cells/well in FACS buffer (PBS without Ca/Mg, containing 3% FCS, Biochrom). Cells were centrifuged (250 g, 5 min, 4° C.) and supernatant discarded. Cells were resuspended in dilutions of the antibodies of interest (10 μg/ml in 80 μl if not indicated otherwise) in FACS buffer, and incubated on ice for 1 h. […] After incubation for 1 h on ice cells were again washed with cold FACS buffer, resuspended in 1000 FACS buffer and analyzed by flow cytometry using a FACS-Array (BD Biosciences). Results are calculated as Geo Mean of fluorescence detected by the antibody of interest subtracted by background fluorescence as measured by detection with the secondary antibody alone. Values are scored according to the following system: Geo Mean−Geo Mean of secondary antibody alone >10: +, >100: ++, >1000: +++, 10000: ++++, close to category border in ( ).

The target in assay [2] is T2, TPP-2305 (hTNFRSF12Aaa28-80) (Human, UniProt Q9NP84 28-80).
T2 construct: monomeric extracellular domain, bought; also called purified recombinant human TWEAKR protein; soluble monomeric TWEAKR
The assay is described as follows: SPR (Biacore T100), IgG captured, TPP-2305 injected, 1:1 model.
Protocol: Binding affinities of anti-TWEAKR antibodies were determined by surface plasmon resonance analysis on a Biacore T100 instrument (GE Healthcare Biacore, Inc.). Antibodies were immobilized onto a CM5 sensor chip through an indirect capturing reagent, anti-human IgG(Fc). […] Anti-TWEAKR antibodies were injected at a concentration of 10 μg/ml at 10 μl/min for 10 sec.
Sensorgrams were generated after in-line reference cell correction followed by buffer sample subtraction. The dissociation equilibrium constant (KD) was calculated based on the ratio of association (kₒₙ) and dissociation rated (koff) constants, obtained by fitting sensorgrams with a first order 1:1 binding model.

Assay [3] has as its target T1, TWEAKR (TNFRSF12A, FN14), human, on …. Kind of assay: cell-based or functional assay.
In assay [4] the target is TPP-1987 (hTNFRSF12Aaa28-80-S40R-hIgG1-Fc) (human). The assay is described as follows: ELISA, TWEAKR-Fc coated 62 ng/ml, biotin-IgG titrated; + means IC50 1 to 150 pM.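 Further: biotinylated IgG binding to immobilized TWEAKR-Fc muteins, detected with Streptavidin-HRP and Amplex Red, IC50 derived from fitted dose-response curves of twofold serial dilutions.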 For orientation: ELISA stands for enzyme-linked immunosorbent assay.
Protocol: (§2) To collect dose-response data, the different TWEAKR-Fc muteins were coated with a low concentration (62 ng/ml) in a 384-well Maxisorb ELISA plate and a serial 2fold dilution of biotinylated IgG starting with a concentration of 100 nM was used as soluble binding partner. Detection was done with Streptavidin-HRP and Amplex Red.
(§3) The dose-response data were fitted and IC50s determined.
In assay [5] the target is TPP-1990 (hTNFRSF12Aaa28-80-L65Q-hIgG1-Fc) (human). The assay is described as above.
Protocol: as §2, §3
The target in assay [6] is TPP-1988 (hTNFRSF12Aaa28-80-M50A-hIgG1-Fc) (human). Described as above.
Protocol: as §2, §3
The target of assay [7] is TPP-1989 (hTNFRSF12Aaa28-80-H60K-hIgG1-Fc) (human). The assay is described as above.
Protocol: as §2, §3
Assay [8] deals with TPP-2683 (hTNFRSF12Aaa28-80-R56P-hIgG1-Fc) (human). Described as above.
Protocol: as §2, §3
For assay [9], the target named is TPP-1986 (hTNFRSF12Aaa28-80-T33Q-hIgG1-Fc) (human). Described as above.
Protocol: as §2, §3
Assay [10] has as its target T3, TPP-2620 (TweakR-ECD-34-68-hIgGFc-His-P59A) (human).
T3 construct: used as HEK293 supernatant
Kind of assay: ELISA, IgG coated 1 ug/ml, HEK293 supernatant titrated.
Protocol: (§4) These TWEAKR(34-68)-Fc muteins were expressed in HEK293 cells. To collect dose-response data, IgGs were coated at a concentration of 1 μg/ml in a 384-well Maxisorp ELISA plate and a serial 2fold dilution of the TWEAKR mutein containing supernatant was used as soluble binding partner. Detection was done with anti-HIS-HRP and Amplex Red.

Assay [11] concerns the target T4, TPP-2625 (TweakR-ECD-34-68-hIgGFc-His-L65A) (human).
T4 construct: used as HEK293 supernatant
The description is as above.
Protocol: as §4

The target of assay [12] is T5, TPP-2616 (TweakR-ECD-34-68-hIgGFc-His-D51A) (human).
T5 construct: used as HEK293 supernatant
The assay is described as above.
Protocol: as §4

Assay [13] concerns the target T6, TPP-2611 (TweakR-ECD-34-68-hIgGFc-His-W42A) (human).
T6 construct: used as HEK293 supernatant; also called W42A (34-68 construct)
Described as above.
Protocol: as §4

For assay [14], the target named is T7, TPP-2608 (TweakR-ECD-34-68-hIgGFc-His-R38A) (human).
T7 construct: used as HEK293 supernatant
The assay is described as above.
Protocol: as §4

Assay [15] addresses T8, TPP-2624 (TweakR-ECD-34-68-hIgGFc-His-F63A) (human).
T8 construct: used as HEK293 supernatant
The description is as above.
Protocol: as §4

In assay [16] the target is T9, TPP-2609 (TweakR-ECD-34-68-hIgGFc-His-S40A) (human).
T9 construct: used as HEK293 supernatant
Described as above.
Protocol: as §4

For assay [17], the target named is T10, TPP-2618 (TweakR-ECD-34-68-hIgGFc-His-R56A) (human).
T10 construct: used as HEK293 supernatant
The assay is described as above.
Protocol: as §4

Assay [18] has as its target T11, TPP-2622 (TweakR-ECD-34-68-hIgGFc-His-S61A) (human).
T11 construct: used as HEK293 supernatant
Described as above.
Protocol: as §4

The target of assay [19] is T1, TWEAKR (TNFRSF12A, FN14), human, on …. Kind of assay: FACS, HT29 cells, 10 ug/ml. (Flow cytometry measures light scatter and fluorescence of single cells or particles in a stream.)
Protocol: as §1
Assay [20] has the same target. Kind of assay: FACS, A375 cells, 10 ug/ml.
Protocol: as §1
The target is the same in assay [21]. The assay is described as follows: FACS, WiDr cells, 10 ug/ml.
Protocol: as §1
Assay [22] shares this target. Kind of assay: cell-based or functional assay. This is another data set of the same source.
Assay [23] has the same target. Kind of assay: FACS, 786-O cells, 10 ug/ml.
For assay [24] the target is unchanged. Kind of assay: FACS, NCI-H322 cells, 10 ug/ml.
Protocol: as §1
For assay [25], the target named is T12, TPP-2202 (TWEAKR-ECD-28-80-hIgGFc-His) (human).
T12 construct: dimeric; also called TWEAKR-Fc fusion protein; full ectodomain 28-80
Kind of assay: ELISA, TPP-2202 coated at 1 µg/ml, biotinylated IgG at 0.08 µg/ml (open bar) and 0.3 µg/ml (filled bar), Streptavidin-HRP, Amplex Red.
Protocol: Detection was done with Streptavidin-HRP and Amplex-Red substrate.
To analyze for binding, 1 μg/ml of the respective dimeric TWEAKR-Fc construct were coated and, 0.3 μg/ml and 0.08 μg/ml of biotinylated IgG were used as soluble binding partner. Detection was done with Streptavidin-HRP and Amplex-Red substrate.

T12 sequence (chain, as listed by the source limits assumed): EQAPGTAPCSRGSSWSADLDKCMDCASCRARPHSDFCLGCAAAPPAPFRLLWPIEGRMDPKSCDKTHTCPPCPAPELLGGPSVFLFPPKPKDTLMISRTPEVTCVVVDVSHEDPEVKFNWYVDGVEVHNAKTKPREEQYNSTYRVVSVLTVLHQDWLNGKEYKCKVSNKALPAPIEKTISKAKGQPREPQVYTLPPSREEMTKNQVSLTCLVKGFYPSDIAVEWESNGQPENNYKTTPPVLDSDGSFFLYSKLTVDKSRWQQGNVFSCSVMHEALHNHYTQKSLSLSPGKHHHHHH

B1: P4A8(TPP-1324) (antibody, human IgG1, kappa, V domains shown)
VH: QVQLVQSGAEVKKPGASVKVSCKGSGYTFTDYGMHWVRQAPGQGLEWMGVISTYNGYTNYNQKFKGRVTMTVDKSTSTAYMELRSLRSDDTAVYYCARAYYGNLYYAMDYWGQGTLVTVSS
VL: DIVLTQSPASLAVSLGQRATISCRASKSVSTSSYSYMHWYQQKPGQPPKLLIKYASNLESGVPARFSGSGSGTDFSLNIHPMEEDDTAMYFCQHSRELPFTFGGGTKLEIKR
notes: Human IgG1; variable domains from WO2009/140177 with constant region added
Turning to B1, the “GeoMean of Fluorescence minus GeoMean with the secondary antibody only” value in [1] stood at 5970; in [19] it was 3670; in [20], 1580; in [21], 5920; in assay [23] it was 30200; in [24] it was 978. Binding in [2] was characterised by a dissociation constant (Kd) of 2.3 nM. In assay [2], the dissociation rate constant (koff) (commonly the rate constant with which the complex falls apart) turned out to be 0.0027 s⁻¹. The kon – broadly, a measure of how fast the partners come together – in assay [2] was 1.2e+06 M⁻¹ s⁻¹. Further, in [3], the “% Inhibition of proliferation, 786-O cells, 96h, 100 ug/ml” value is 29%. Further, in assay [3], the “% Inhibition of proliferation, A253 cells, 72h, 100 ug/ml” value worked out at 37%. Besides, the “% Inhibition of proliferation, HT-29 cells, 24h, 100 ug/ml” value in assay [3] is -10%. Moreover, the “% Inhibition of proliferation, WiDr cells, 96h, 100 ug/ml” value in [3] worked out at 4%. Besides, the binding result in [4], in assay [5], in [6], in assay [7], in assay [8] and in [9] was “binds” throughout. The binding result in assay [10], in [11], in assay [12], in assay [13], in assay [14] and in assay [15] was “no binding” throughout. Also, the binding result is given as “no binding” in [16], “no binding” in assay [17], “no binding” in assay [18] and “binds” in [25]. The “IL-8 release from A375 cells at 100 ug/ml, % of the activation by 300 ng/ml TWEAK ligand” value in [22] is 29%.

B2: TPP-2090 (antibody, human IgG1, kappa, V domains shown)
VH: EVQLLESGGGLVQPGGSLRLSCAASGFTFSPYPMIWVRQAPGKGLEWVSYISPSGGSTHYADSVKGRFTISRDNSKNTLYLQMNSLRAEDTAVYYCARGGDTYFDYFDYWGQGTLVTVSS
VL: DIQMTQSPSSLSASVGDRVTITCRASQSISGYLNWYQQKPGKAPKLLIYQASSLQSGVPSRFSGSGSGTDFTLTISSLQPEDFATYYCQQSYTSPFITFGQGTKVEIKR
notes: Human IgG1
For the molecule B2, the “GeoMean of Fluorescence minus GeoMean with the secondary antibody only” value in assay [1] is 2870; in [19], 1420; in [20], 561; in assay [21] it was 2420; in assay [23], 20300; in assay [24] it was 291. Further, in assay [2], the Kd (commonly the free concentration of one partner at which half of the binding sites on the other are occupied at equilibrium, for simple one-to-one binding) came out at 12.4 nM. Moreover, the “% Inhibition of proliferation, 786-O cells, 96h, 100 ug/ml” value in [3] was 71%. Besides, the “% Inhibition of proliferation, A253 cells, 72h, 100 ug/ml” value in assay [3] is 99%. Besides, in assay [3], the “% Inhibition of proliferation, HT-29 cells, 24h, 100 ug/ml” value is over 100%. The binding result in [4], in assay [5], in assay [6], in assay [7], in assay [8] and in [9] was “binds” throughout. The binding result in assay [25] was “binds”. For the same molecule, in assay [22], the “IL-8 release from A375 cells at 100 ug/ml, % of the activation by 300 ng/ml TWEAK ligand” value stood at 103%.

(Values after patent US20160237160A1 (Bayer, published 2016).)
